Measurements published in publication PMC13627691 (2026).

B1: ATG2A-mCherry (expressed as 3XFLAG-TEV-ATG2A-mCherry) [not stated (the printed accession is a human entry)] / GST-tagged LC3B [not stated (the printed accession is a human entry)] (parent complex)
chain 1: MSRWLWPWSNCVKERVCRYLLHHYLGHFFQEHLSLDQLSLDLYKGSVALRDIHLEIWSVNEVLESMESPLELVEGFVGSIEVAVPWAALLTDHCTVRVSGLQLTLQPRRGPAPGAADSQSWASCMTTSLQLAQECLRDGLPEPSEPPQPLEGLEMFAQTIETVLRRIKVTFLDTVVRVEHSPGDGERGVAVEVRVQRLEYCDEAVRDPSQAPPVDVHQPPAFLHKLLQLAGVRLHYEELPAQEEPPEPPLQIGSCSGYMELMVKLKQNEAFPGPKLEVAGQLGSLHLLLTPRQLQQLQELLSAVSLTDHEGLADKLNKSRPLGAEDLWLIEQDLNQQLQAGAVAEPLSPDPLTNPLLNLDNTDLFFSMAGLTSSVASALSELSLSDVDLASSVRSDMASRRLSAQAHPAGKMAPNPLLDTMRPDSLLKMTLGGVTLTLLQTSAPSSGPPDLATHFFTEFDATKDGPFGSRDFHHLRPRFQRACPCSHVRLTGTAVQLSWELRTGSRGRRTTSMEVHFGQLEVLECLWPRGTSEPEYTEILTFPGTLGSQASARPCAHLRHTQILRRVPKSRPRRSVACHCHSELALDLANFQADVELGALDRLAALLRLATVPAEPPAGLLTEPLPAMEQQTVFRLSAPRATLRLRFPIADLRPEPDPWAGQAVRAEQLRLELSEPQFRSELSSGPGPPVPTHLELTCSDLHGIYEDGGKPPVPCLRVSKALDPKSTGRKYFLPQVVVTVNPQSSSTQWEVAPEKGEELELSVESPCELREPEPSPFSSKRTMYETEEMVIPGDPEEMRTFQSRTLALSRCSLEVILPSVHIFLPSKEVYESIYNRINNDLLMWEPADLLPTPDPAAQPSGFPGPSGFWHDSFKMCKSAFKLANCFDLTPDSDSDDEDAHFFSVGASGGPQAAAPEAPSLHLQSTFSTLVTVLKGRITALCETKDEGGKRLEAVHGELVLDMEHGTLFSVSQYCGQPGLGYFCLEAEKATLYHRAAVDDYPLPSHLDLPSFAPPAQLAPTIYPSEEGVTERGASGRKGQGRGPHMLSTAVRIHLDPHKNVKEFLVTLRLHKATLRHYMALPEQSWHSQLLEFLDVLDDPVLGYLPPTVITILHTHLFSCSVDYRPLYLPVRVLITAETFTLSSNIIMDTSTFLLRFILDDSALYLSDKCEVETLDLRRDYVCVLDVDLLELVIKTWKGSTEGKLSQPLFELRCSNNVVHVHSCADSCALLVNLLQYVMSTGDLHPPPRPPSPTEIAGQKLSESPASLPSCPPVETALINQRDLADALLDTERSLRELAQPSGGHLPQASPISVYLFPGERSGAPPPSPPVGGPAGSLGSCSEEKEDEREEEGDGDTLDSDEFCILDAPGLGIPPRDGEPVVTQLHPGPIVVRDGYFSRPIGSTDLLRAPAHFPVPSTRVVLREVSLVWHLYGGRDFGPHPGHRARTGLSGPRSSPSRCSGPNRPQNSWRTQGGSGRQHHVLMEIQLSKVSFQHEVYPAEPATGPAAPSQELEERPLSRQVFIVQELEVRDRLASSQINKFLYLHTSERMPRRAHSNMLTIKALHVAPTTNLGGPECCLRVSLMPLRLNVDQDALFFLKDFFTSLVAGINPVVPGETSAEARPETRAQPSSPLEGQAEGVETTGSQEAPGGGHSPSPPDQQPIYFREFRFTSEVPIWLDYHGKHVTMDQVGTFAGLLIGLAQLNCSELKLKRLCCRHGLLGVDKVLGYALNEWLQDIRKNQLPGLLGGVGPMHSVVQLFQGFRDLLWLPIEQYRKDGRLMRGLQRGAASFGSSTASAALELSNRLVQAIQATAETVYDILSPAAPVSRSLQDKRSARRLRRGQQPADLREGVAKAYDTVREGILDTAQTICDVASRGHEQKGLTGAVGGVIRQLPPTVVKPLILATEATSSLLGGMRNQIVPDAHKDHALKWRSDSAQD
chain 2: not shown

Variants of: B1
Experiment: bead-based binding assay (GSH beads, confocal imaging of mCherry fluorescence); 5 µM GST-tagged bait on Glutathione Sepharose 4B beads; 0.5 µM ATG2A-mCherry or ATG2A-LIR-mCherry; SEC150 buffer; N = 3; parent: 17; read off a plot

| Variant | response [%] |
| --- | --- |
| chain 1 F1362A, chain 1 C1363A, chain 1 I1364A, chain 1 L1365A | ~0.7 |
